Measurements taken from patent US20250215108A1 (OSE IMMUNOTHERAPEUTICS, published 2025).
“And” between values parts separate entries of the source, which are not always exact repeats. Equal entries are not always repeated.

Legend:
SIRPa on human monocytes [1] = target: T1, SIRPa on human monocytes (human, UniProt P78324 31-504); experiment: flow cytometry on human monocytes v1/v1 (Fc receptors blocked), PE anti-human Fc; readout % stained monocytes
T1 construct: also called human monocytes (v1/v1); SIRPa variant 1 on monocytes
Procedure: (§1) FIG. 3A, B, C, D, E, F, G. Binding analyses of anti-SIRPa antibodies on human monocytes (homozygote for SIRPa variant 1 (v1/v1)). [0478] […] Revelation was performed with a PE labeled mouse anti-human Fc mAb on Cantoll cytometer, values corresponding to percentage of stained monocytes. […] A corresponds to the percentage of monocytes v1/v1 stained. B corresponds to the mean of fluorescence intensity (MFI) of monocytes v1/v1. [0479] […] D represents the percentage of stained monocytes over antibody dose response. Statistical analysis were performed when it was possible. [0480] (E, F, G) SIRPa variants binding in the population by anti-h SIRPa antibodies: The capacity of different anti-hSIRPa antibodies to bind SIRPa variants in the 32 volunteers was measured by FACS with a PE-anti mouse IgG. […] F represents the homozygote variant 2 volunteers (n=8). G represents the heterozygote V1/V2 volunteers (n=8).
(§2) Method: To measure the binding of the anti-SIRPa antibodies on human monocytes, human Fc Receptor Binding Inhibitor (BD pharmingen; USA; reference 564220) was first added for 30 min at room-temperature to block human Fc receptors on human monocytes to reduce background. Then, an antibody was incubated for 30 min at 4° C., and washed before stained 30 min at 4° C. with PE-labelled anti-human IgG Fc (Biolegend; USA; reference 409303). For the mouse antibodies, a PE-labelled anti-mouseIgG (Jackson Immunoresearch; reference 715-116-151) was used. Samples were analyzed on BD LSRII or Canto II cytofluorometer.

SIRPa on human monocytes [2] = target: T1, SIRPa on human monocytes; experiment: competition flow cytometry on human monocytes v1/v1: antibody titrated with biotinylated CD47-Fc (competitor; 10 µg/ml in the legend, 5 µg/ml in Example 5), PE-streptavidin; readout median fluorescence
Source text: (§3) FIG. 5A, B, C. […] [0485] […] A corresponds to the percentage of positive cells. B corresponds to the mean of fluorescence intensity. [0486]

SIRPa on human monocytes [3] = target: T1, SIRPa on human monocytes; experiment: flow cytometry on human monocytes v1/v1 (Fc receptors blocked), PE anti-human Fc; readout MFI
Procedure: as §1, §2

[4] = target: T2, recombinant hSIRPa (Sino Biologicals, reference 10975-H08H) (human, UniProt P78324 31-370); experiment: ELISA (ED50), immobilized hSIRPa, anti-mouse Fc detection
T2 construct: Used in the ELISA with the mouse antibodies
Procedure: For the ELISA assay with the mouse antibodies, a recombinant hSIRPa (Sino Biologicals, Beijing, China; reference 10975-H08H) was immobilized on plastic at 0.5 μg/ml in carbonate buffer (pH 9.2) and the purified antibody was added to measure binding.

[5] = target: T3, CD47 on human blood cells (T cells, red blood cells, platelets) (human, UniProt Q08722 19-323); experiment: flow cytometry on human red blood cells (left panel) and freshly isolated human platelets (right panel)
T3 construct: whole, on cells

SIRPa on human monocytes [6] = target: T1, SIRPa on human monocytes; experiment: competition flow cytometry on human monocytes v1/v1: antibody titrated with biotinylated CD47-Fc (competitor; 10 µg/ml in the legend, 5 µg/ml in Example 5), PE-streptavidin; readout % positives
Source text: as §3

Row | Binder | EC50 (SIRPa on human monocytes [1]) | IC50 (SIRPa on human monocytes [2]) | EC50 (SIRPa on human monocytes [3]) | EC50 [4] | binding result [5] | IC50 (SIRPa on human monocytes [6])
1 | HFLA (humanized 18D5 variant) (antibody, human IgG4 S228P, kappa, V domains shown) VH: EVQLVQSGAEVKKPGESLRISCKASGYSFTSYWVHWVRQMPGKGLEWMGNIDPSDSDTHYSPSFQGHVTLSVDKSISTAYLQLSSLKASDTAMYYCVRGGTGTMAYFAYWGQGTLVTVSS VL: DVVMTQSPLSLPVTLGQPASISCRSSQSLVHSYGNTYLYWYQQRPGQSPRLLIYRVSNRFSGVPDRFSGSGSGTDFTLKISRVEAEDVGVYFCFQGTHVPYTFGGGTKVEIKR | 0.174 µg/mL | – | 0.328 µg/mL | – | – | –
2 | HEFLA (humanized 18D5 variant) (antibody, human IgG4 S228P, kappa, V domains shown) VH: EVQLVQSGAEVKKPGESLRISCKASGYSFTSYWVHWVRQMPGKGLEWMGNIDPSDSDTHYSPSFQGHVTLSVDKSISTAYLQLSSLKASDTAMYYCVRGGTGTLAYFAYWGQGTLVTVSS VL: DVVMTQSPLSLPVTLGQPASISCRSSQSLVHSYGNTYLYWYQQRPGQSPRLLIYRVSNRFSGVPDRFSGSGSGTDFTLKISRVEAEDVGVYFCFQGTHVPYTFGGGTKVEIKR | 0.356 µg/mL | – | 0.858 µg/mL | – | – | –
3 | HALA (humanized 18D5 variant) (antibody, human IgG4 S228P, kappa, V domains shown) VH: EVQLVQSGAEVKKPGESLRISCKASGYTFTSYWVHWVRQMPGKGLEWIGNIDPSDSDTHYNQKFKDHVTLSVDKSISTAYLQLSSLKASDTAMYYCVRGGTGTMAWFAYWGQGTLVTVSS VL: DVVMTQSPLSLPVTLGQPASISCRSSQSLVHSYGNTYLYWYQQRPGQSPRLLIYRVSNRFSGVPDRFSGSGSGTDFTLKISRVEAEDVGVYFCFQGTHVPYTFGGGTKVEIKR | 0.242 µg/mL | – | 0.59 µg/mL | – | – | –

Second part, the binder after the results:

Row | EC50 (SIRPa on human monocytes [1]) | IC50 (SIRPa on human monocytes [2]) | EC50 (SIRPa on human monocytes [3]) | EC50 [4] | binding result [5] | IC50 (SIRPa on human monocytes [6]) | Binder
4 | 0.225 µg/mL | 0.2 µg/mL | 0.78 µg/mL | – | – | – | chimeric mouse/human 18D5 antibody (antibody, human IgG4 S228P, kappa, also called chimeric antibody; chimeric 18D5) heavy: not shown light: DVVMTQTPLSLPVSLGDQASISCRSSQSLVHSYGNTYLYWYLQKPGQSPKLLIYRVSNRFSGVPDRFSGSGSGTDFTLKISRVEAEDLGVYFCFQGTHVPYTFGSGTKLEIKRTVAAPSVFIFPPSDEQLKSGTASVVCLLNNFYPREAKVQWKVDNALQSGNSQESVTEQDSKDSTYSLSSTLTLSKADYEKHKVYACEVTHQGLSSPVTKSFNRGEC
5 | – | – | – | 0.06 nM and 0.009 µg/mL | – | – | mouse antibody 18D5 (antibody, mouse IgG2b, kappa, also called m18D5; m18D5 clone) heavy: QVQLQQPGAELVRPGSSVKLSCKASGYTFTSYWVHWVKQRPIQGLEWIGNIDPSDSDTHYNQKFKDKASLTVDKSSSTAYMQLSSLTFEDSAVYYCVRGGTGTMAWFAYWGQGTLVTVSAAKTTPPSVYPLAPGCGDTTGSSVTLGCLVKGYFPESVTVTWNSGSLSSSVHTFPALLQSGLYTMSSSVTVPSSTWPSQTVTCSVAHPASSTTVDKKLEPSGPISTINPCPPCKECHKCPAPNLEGGPSVFIFPPNIKDVLMISLTPKVTCVVVDVSEDDPDVQISWFVNNVEVHTAQTQTHREDYNSTIRVVSTLPIQHQDWMSGKEFKCKVNNKDLPSPIERTISKIKGLVRAPQVYILPPPAEQLSRKDVSLTCLVVGFNPGDISVEWTSNGHTEENYKDTAPVLDSDGSYFIYSKLNMKTSKWEKTDSFSCNVRHEGLKNYYLKKTISRSPGK light: DVVMTQTPLSLPVSLGDQASISCRSSQSLVHSYGNTYLYWYLQKPGQSPKLLIYRVSNRFSGVPDRFSGSGSGTDFTLKISRVEAEDLGVYFCFQGTHVPYTFGSGTKLEIKRADAAPTVSIFPPSSEQLTSGGASVVCFLNNFYPKDINVKWKIDGSERQNGVLNSWTDQDSKDSTYSMSSTLTLTKDEYERHNSYTCEATHKTSTSPIVKSFNRNEC
6 | 0.208 µg/mL | – | 0.449 µg/mL | – | no binding | – | HEFLB (humanized 18D5 variant) (antibody, human IgG4 S228P, kappa, V domains shown, also called anti-SIRPa HEFLB; HEFLB variant) VH: EVQLVQSGAEVKKPGESLRISCKASGYSFTSYWVHWVRQMPGKGLEWMGNIDPSDSDTHYSPSFQGHVTLSVDKSISTAYLQLSSLKASDTAMYYCVRGGTGTLAYFAYWGQGTLVTVSS VL: DVVMTQSPLSLPVTLGQPASISCRSSQSLVHSYGNTYLYWFQQRPGQSPRLLIYRVSNRFSGVPDRFSGSGSGTDFTLKISRVEAEDVGVYYCFQGTHVPYTFGGGTKVEIKR
7 | 0.201 µg/mL | – | 0.467 µg/mL | – | – | 0.15 µg/mL | HFLB (humanized 18D5 variant) (antibody, human IgG4 S228P, kappa, V domains shown) VH: EVQLVQSGAEVKKPGESLRISCKASGYSFTSYWVHWVRQMPGKGLEWMGNIDPSDSDTHYSPSFQGHVTLSVDKSISTAYLQLSSLKASDTAMYYCVRGGTGTMAYFAYWGQGTLVTVSS VL: DVVMTQSPLSLPVTLGQPASISCRSSQSLVHSYGNTYLYWFQQRPGQSPRLLIYRVSNRFSGVPDRFSGSGSGTDFTLKISRVEAEDVGVYYCFQGTHVPYTFGGGTKVEIKR
